Experimental data reported in US10215752B2, “Nanotube array for optical detection of protein-protein interactions” (MASSACHUSETTS INSTITUTE OF TECHNOLOGY, priority 2010, dated 2019).

Molecular target: p16 (Homo sapiens, UniProt Q8N726)
Experiment: Protein-protein interaction on SWNT/CHI array, Förster distance calculation
Conditions: distance change after analyte protein p16, Förster equation
Procedure: Reaction mixtures for cell-free protein expression were added to each array wells. The fluorescent intensities of each SWNT/CHI well were taken to track the intensity changes. To initiate protein synthesis, 1 μl PCR-amplified DNAs were added to each well a humidified chamber at 37° C. for 2 hours. The arrays were washed three times for 10 min each with PBS buffer (pH 7.4, 100 mM) at RT and then PL spectra were taken. To analyze protein-protein interaction on SWNT/XHI array, anti-Histag antibody or cell-free expressed protein mixtures were added to each well and then PL spectra were taken to compare the intensity change.
Near-infrared photoluminescence spectra were acquired using 785 nm excitation and an Acton SP-150 spectrograph coupled to a Princeton instruments OMA V InGaAs detector or with Kaiser Holospec f/1.8 Imaging Spectrograph (Kaiser Optical).

p16, sequence (Q8N726 with tags, fused parts or gaps): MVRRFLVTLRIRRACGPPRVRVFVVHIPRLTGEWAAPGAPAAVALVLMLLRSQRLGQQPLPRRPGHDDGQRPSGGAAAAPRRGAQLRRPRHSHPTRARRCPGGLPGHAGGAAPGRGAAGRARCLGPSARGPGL

- Δd2: 0.06338
B1: CDK4: human derived protein (ExPASy P11802), on-chip cell-free expressed with His-tag (protein, UniProt P11802 2-303, looked up)
Cyclin-dependent kinase 4: ATSRYEPVAEIGVGAYGTVYKARDPHSGHFVALKSVRVPNGGGGGGGLPISTVREVALLRRLEAFEHPNVVRLMDVCATSRTDREIKVTLVFEHVDQDLRTYLDKAPPPGLPAETIKDLMRQFLRGLDFLHANCIVHRDLKPENILVTSGGTVKLADFGLARIYSYQMALTPVVVTLWYRAPEVLLQSTYATPVDMWSVGCIFAEMFRRKPLFCGNSEADQLGKIFDLIGLPPEDDWPRDVSLPRGAFPPRGPRPVQSVVPEMEESGAQLLLEMLTFNPHKRISAFRALQHSYLHKDEGNPE
modifications: His-tag
